Data on 8 molecules can be found in US20240376185A1 (SMIVET B V, published 2024).

In test [1] the target is T1, tetanus neurotoxin (TeNT), authentic tetanus holotoxin (Clostridium tetani, UniProt P04958 2-1315). As to the kind of experiment: GT1b-TeNT inhibition ELISA.
Target sequence in this assay (P04958 2-457 limits assumed, chain 1 of 2): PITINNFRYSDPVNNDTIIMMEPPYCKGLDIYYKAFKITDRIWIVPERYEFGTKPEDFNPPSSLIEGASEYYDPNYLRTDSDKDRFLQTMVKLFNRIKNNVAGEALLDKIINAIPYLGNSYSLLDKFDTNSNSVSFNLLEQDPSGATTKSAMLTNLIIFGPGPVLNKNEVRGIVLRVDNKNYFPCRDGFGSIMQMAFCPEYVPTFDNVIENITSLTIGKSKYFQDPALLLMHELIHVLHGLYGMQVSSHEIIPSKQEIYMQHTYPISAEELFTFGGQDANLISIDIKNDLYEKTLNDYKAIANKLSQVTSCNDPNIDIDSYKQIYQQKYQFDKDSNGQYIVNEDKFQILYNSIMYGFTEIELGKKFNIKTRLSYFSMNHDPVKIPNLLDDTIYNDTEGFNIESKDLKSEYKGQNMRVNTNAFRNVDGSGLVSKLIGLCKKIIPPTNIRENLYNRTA
Target sequence in this assay (P04958 458-1315 limits assumed, chain 2 of 2): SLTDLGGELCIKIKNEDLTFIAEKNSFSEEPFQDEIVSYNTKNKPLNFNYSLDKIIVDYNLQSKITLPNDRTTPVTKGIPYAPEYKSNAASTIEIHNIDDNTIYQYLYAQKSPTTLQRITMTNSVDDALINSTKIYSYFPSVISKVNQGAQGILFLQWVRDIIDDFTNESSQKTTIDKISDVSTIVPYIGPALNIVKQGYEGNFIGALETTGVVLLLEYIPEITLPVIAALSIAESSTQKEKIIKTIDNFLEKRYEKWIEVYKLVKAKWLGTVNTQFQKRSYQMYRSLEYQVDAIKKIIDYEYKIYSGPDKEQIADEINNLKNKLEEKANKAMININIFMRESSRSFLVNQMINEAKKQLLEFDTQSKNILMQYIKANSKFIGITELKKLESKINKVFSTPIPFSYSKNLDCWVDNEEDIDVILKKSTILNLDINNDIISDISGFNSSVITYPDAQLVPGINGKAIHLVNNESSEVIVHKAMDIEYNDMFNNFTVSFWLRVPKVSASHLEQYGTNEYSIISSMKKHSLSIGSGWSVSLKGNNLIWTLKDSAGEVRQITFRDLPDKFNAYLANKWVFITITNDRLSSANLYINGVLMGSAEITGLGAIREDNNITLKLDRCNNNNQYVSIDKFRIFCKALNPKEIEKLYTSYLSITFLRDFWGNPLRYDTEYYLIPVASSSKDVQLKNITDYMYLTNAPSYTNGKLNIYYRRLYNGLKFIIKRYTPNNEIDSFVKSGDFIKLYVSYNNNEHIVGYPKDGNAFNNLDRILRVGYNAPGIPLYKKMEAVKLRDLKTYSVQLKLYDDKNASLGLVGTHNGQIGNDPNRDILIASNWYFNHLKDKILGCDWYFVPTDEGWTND
Test [2] has as its target T1, tetanus neurotoxin (TeNT), authentic …. As to the kind of experiment: GT1b-TeNT inhibition ELISA. This is another data set of the same source. For orientation: An ELISA detects its analyte on a solid surface through an enzyme-linked reagent.
Target sequence in this assay (P04958 2-457 limits assumed, chain 1 of 2): as the sequence (P04958 2-457 limits assumed, chain 1 of 2) above
Target sequence in this assay (P04958 458-1315 limits assumed, chain 2 of 2): as the sequence (P04958 458-1315 limits assumed, chain 2 of 2) above
The target is the same in test [3]. Description: ELISA: directly coated TeNT, goat anti-llama Ig PO.
Target sequence in this assay (P04958 2-457 limits assumed, chain 1 of 2): as the sequence (P04958 2-457 limits assumed, chain 1 of 2) above
Target sequence in this assay (P04958 458-1315 limits assumed, chain 2 of 2): as the sequence (P04958 458-1315 limits assumed, chain 2 of 2) above
Test [4] has the same target. As to the kind of experiment: bridging ELISA: coated TeNT, SDA, biotinylated TeNT, StrepPO (bivalent binding).
Target sequence in this assay (P04958 2-457 limits assumed, chain 1 of 2): as the sequence (P04958 2-457 limits assumed, chain 1 of 2) above
Target sequence in this assay (P04958 458-1315 limits assumed, chain 2 of 2): as the sequence (P04958 458-1315 limits assumed, chain 2 of 2) above
The target is the same in test [5]. As to the kind of experiment: ELISA: directly coated TeNT, goat anti-llama Ig PO. This is another data set of the same source.
Target sequence in this assay (P04958 2-457 limits assumed, chain 1 of 2): as the sequence (P04958 2-457 limits assumed, chain 1 of 2) above
Target sequence in this assay (P04958 458-1315 limits assumed, chain 2 of 2): as the sequence (P04958 458-1315 limits assumed, chain 2 of 2) above
Test [6] has the same target. Description: ELISA: directly coated TeNT, anti-his6 PO.
For test [7] the target is unchanged. Description: bridging ELISA: coated dog IgG, SDA, biotinylated TeNT, StrepPO.
Target sequence in this assay (P04958 2-457 limits assumed, chain 1 of 2): as the sequence (P04958 2-457 limits assumed, chain 1 of 2) above
Target sequence in this assay (P04958 458-1315 limits assumed, chain 2 of 2): as the sequence (P04958 458-1315 limits assumed, chain 2 of 2) above
Test [8] concerns the target dog IgG (chrompure dog IgG) (dog).
Test [9] deals with T1, tetanus neurotoxin (TeNT), authentic …. Description: bridging ELISA: coated dog IgG, SDA, biotinylated TeNT, StrepPO. This is another data set of the same source.
Test [10] has the same target. Description: cell-based or functional assay.
For test [11] the target is unchanged. Description: ELISA: directly coated TeNT, anti-his6 PO. The source holds these as a separate data set.
For test [12] the target is unchanged. As to the kind of experiment: BLI (Octet Red96): biotinylated TeNT on SA sensor, SDA as analyte. In general terms: Biolayer interferometry detects binding as a change in optical thickness at a sensor tip.
The target is the same in test [13]. Description: bridging ELISA: coated TeNT, SDA, biotinylated TeNT, StrepPO (bivalent binding). This is another data set of the same source.
The target of test [14] is T2, tetanus neurotoxin (TeNT), authentic tetanus holotoxin (Clostridium tetani, UniProt P04958 2-1315). As to the kind of experiment: ELISA, cAb-TT2 captured TeNT, E. coli supernatant.
Test [15] deals with T2, tetanus neurotoxin (TeNT), authentic …. Description: GT1b-TeNT inhibition ELISA (no SDA: 1.302, 1.257).
Test [16] shares this target. Description: ELISA, directly coated TeNT, E. coli supernatant.
The target of test [17] is T3, recombinant tetanus toxin fragment C (rTTC) (Clostridium tetani, UniProt P04958 865-1315).
T3 sequence: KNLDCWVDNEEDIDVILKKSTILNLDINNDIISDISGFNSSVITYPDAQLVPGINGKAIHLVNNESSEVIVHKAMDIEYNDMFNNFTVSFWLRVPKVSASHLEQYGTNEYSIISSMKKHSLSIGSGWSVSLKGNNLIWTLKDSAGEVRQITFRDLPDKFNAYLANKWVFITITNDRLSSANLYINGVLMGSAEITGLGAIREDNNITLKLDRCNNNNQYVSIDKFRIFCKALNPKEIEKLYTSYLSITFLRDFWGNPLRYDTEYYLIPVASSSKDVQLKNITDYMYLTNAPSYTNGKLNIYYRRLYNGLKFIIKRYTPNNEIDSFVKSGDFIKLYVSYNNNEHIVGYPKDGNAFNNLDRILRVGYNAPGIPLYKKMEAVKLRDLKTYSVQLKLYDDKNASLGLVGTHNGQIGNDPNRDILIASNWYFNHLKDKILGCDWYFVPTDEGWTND
As to the kind of experiment: ELISA, directly coated rTTC.

The target of test [18] is T3, recombinant tetanus toxin fragment C …. As to the kind of experiment: ELISA, directly coated rTTC, E. coli supernatant.
The target in test [19] is dog IgG (chrompure dog IgG) (dog). This is another data set of the same source.

B1: SVT02-GS2-SVG13M4-H6 (bispecific antibody)
chain: QVQLQQSGGGSVQAGGSLRLSCVGPQRTFSTYGMGWFRQAPGKEREFVAGINYKGDTTYYADSVKGRFTISRDNAKNTLYLQMDSLKPEDRAVYQCARKGGLGGDYRDAGQYRYWGQGTQVTVSSGGGGSGGGSEVQLVESGGGLVQPGGSLRLSCEASGFTFDDYGMSWVRQAPGKGLEWVSSLTPNGGSTYYADSVKGRFTISRDNAKNTLYLQMNSLKPEDTALYYCAKNSYYGAMDYWGQGTQVTVSSHHHHHH
On to B1, for which, in test [1], the “Effective SDA Concentration at A450 0.56” value was over 1000 ng/mL. The “minimal absorbance value (GT1b-TeNT inhibition)” value in [2] came out at 0.77 A450. Besides, the “Effective SDA Concentration at A450 0.15” value in test [3] and in test [6] was over 1000 ng/mL throughout. Further, the “Effective SDA Concentration at A450 0.3” value is over 1000 ng/mL in test [4] and 9.1 ng/mL in [9]. Also, the maximal absorbance value in [5] was determined as 0.09 A450; in test [7] it was 1.32 A450; in test [8], 0.18 A450; in test [11], 0.06 A450; in test [13], 0.19 A450. Besides, the Endpoint dilution factor in test [10] is under 1. For the same molecule, in test [10], the “SDA concentration providing full protection” value is over 1000 nM. Besides, in test [12], the dissociation constant (Kd) worked out at 0.0987 nM. Also, the koff in test [12] was 0.000121 s⁻¹. This molecule also came in with an on-rate constant (kon) in test [12] of 1.23e+06 M⁻¹ s⁻¹.

B2: SVT03 (VHH)
VHH: QVQLQQSGGGSVQTGDSLTLSCTASGGSLNSYFVGWFRQSGGKEREFVSVIARTGRSTSYADSVKGRFTISRDNAANTVFLTMNNLRPDDTAIYYCAAVGRPGVLHLTQSYDYWGQGTQVTVSS
As for B2, the “absorbance at 450 nm” value is 0.534 A450 in test [14], 1.29 A450 in test [15], 0.091 A450 in test [16] and 0.061 A450 in test [18]. Further, the binding result in test [17] was “no binding (tested: tenfold diluted supernatant)”.

B3: SVT03L (VHH)
VHH: B2 VHH
notes: yeast-produced
For the molecule B3, the binding result in test [17] was “no binding”.

B4: SVT02 (VHH)
VHH: QVQLQQSGGGSVQAGGSLRLSCVGPQRTFSTYGMGWFRQAPGKEREFVAGINYKGDTTYYADSVKGRFTISRDNAKNTLYLQMDSLKPEDRAVYQCARKGGLGGDYRDAGQYRYWGQGTQVTVSS
As to B4, the “absorbance at 450 nm” value in test [14] was found to be 0.511 A450; in [15] it was 1.34 A450; in test [16], 0.078 A450; in test [18], 0.06 A450. Further, the binding result in [17] was “no binding (tested: tenfold diluted supernatant)”.

B5: SVT02L (VHH)
VHH: B4 VHH
notes: yeast-produced
In the case of B5, the binding result in test [17] is “no binding”.

B6: SVT06-GS2-SVG13M4-H6 (bispecific antibody)
chain: QVQLQESGGGSVQAGGSLRLSCTASELSYDDYTIAWFRRAAGEGRVEDGEGVASITKSYDRAYDNKINYGHSVKGRFTISRDNAKNTVYLQMTDLLPSDTAVYYCALDITPPGGVGASLTEGFLFDYWGQGTQVTVSSGGGGSGGGSEVQLVESGGGLVQPGGSLRLSCEASGFTFDDYGMSWVRQAPGKGLEWVSSLTPNGGSTYYADSVKGRFTISRDNAKNTLYLQMNSLKPEDTALYYCAKNSYYGAMDYWGQGTQVTVSSHHHHHH
For the molecule B6, the “Effective SDA Concentration at A450 0.56” value in [1] was 93 ng/mL. The “minimal absorbance value (GT1b-TeNT inhibition)” value in test [2] came out at 0.22 A450. The figures for the “Effective SDA Concentration at A450 0.15” value in test [3] and in test [6] were 2 ng/mL and 3.4 ng/mL, respectively. In addition, the entries for the “Effective SDA Concentration at A450 0.3” value in [4] and in test [9] were 9.6 ng/mL and under 0.49 ng/mL, respectively. Moreover, the maximal absorbance value came out at 1.2 A450 in test [5]; 1.61 A450 in test [7]; 1.18 A450 in test [8]; 1.44 A450 in test [11]; 0.98 A450 in test [13]. Moreover, the “Effective SDA Concentration at A450 0.2” value in [19] was 46 ng/mL. The molecule further came in with an Endpoint dilution factor in test [10] of 2.4. Besides, the “Potency IU/mg” value in [10] was 1.04 IU/mg. In addition, in [10], the “SDA concentration providing full protection” value came to 1000 nM. In addition, the Kd in [12] stood at 0.123 nM. Besides, in test [12], the koff was 8.24e-05 s⁻¹. In test [12], this molecule gave a kon of 670000 M⁻¹ s⁻¹.

B7: SVT15-3FW4M-GS2-SVG06M4-H6 (bispecific antibody)
chain: QVQLQESGGGLVQTGGSLRLSCRASGRAFANYHFGWFRQAPGKDREFVASISWKGGSTYYANFALGRFTSSVDRAESSVYLQMSGLTPEDTATYYCAAHDGGDWNYHTGMDYWGQGTQVTVSSGGGGSGGGSEVQLVESGGALVQPGGSLRLSCAASGFPFSAYDMTWVRQAPGQGLEWVSTIHKSGGITTYADSVKGRFTISRDNAKNTLYLQMNNLESEDTAVYYCAKALRAHNSDYVGRNALGSWGQGTQVTVSSHHHHHH
With B7, the “Effective SDA Concentration at A450 0.56” value in test [1] turned out to be 131 ng/mL. Moreover, the “minimal absorbance value (GT1b-TeNT inhibition)” value in [2] was determined as 0.12 A450. The “Effective SDA Concentration at A450 0.15” value in test [3] came to 4.3 ng/mL; in test [6], 37 ng/mL. The entries for the “Effective SDA Concentration at A450 0.3” value in test [4] and in test [9] were over 1000 ng/mL and 8.3 ng/mL, respectively. For the same molecule, the maximal absorbance value worked out at 1.23 A450 in test [5]; 1.3 A450 in test [7]; 0.07 A450 in test [8]; 0.37 A450 in test [11]; 0.29 A450 in test [13].

B8: SVT15-3FW4M-GS2-SVG13M4-H6 (bispecific antibody)
chain: QVQLQESGGGLVQTGGSLRLSCRASGRAFANYHFGWFRQAPGKDREFVASISWKGGSTYYANFALGRFTSSVDRAESSVYLQMSGLTPEDTATYYCAAHDGGDWNYHTGMDYWGQGTQVTVSSGGGGSGGGSEVQLVESGGGLVQPGGSLRLSCEASGFTFDDYGMSWVRQAPGKGLEWVSSLTPNGGSTYYADSVKGRFTISRDNAKNTLYLQMNSLKPEDTALYYCAKNSYYGAMDYWGQGTQVTVSSHHHHHH
With B8, the “Effective SDA Concentration at A450 0.56” value in [1] was found to be 77 ng/mL. In [2], the “minimal absorbance value (GT1b-TeNT inhibition)” value turned out to be 0.13 A450. Also, the “Effective SDA Concentration at A450 0.15” value in [3] is 2 ng/mL; in test [6] it was 4.9 ng/mL. The “Effective SDA Concentration at A450 0.3” value in [4] came out at 23 ng/mL; in [9] it was 2.2 ng/mL. Besides, the maximal absorbance value amounted to 1.16 A450 in test [5]; 1.47 A450 in [7]; 1 A450 in test [8]; 1.51 A450 in test [11]; 0.78 A450 in test [13]. The “Effective SDA Concentration at A450 0.2” value in test [19] amounted to 63 ng/mL. The molecule also registered an Endpoint dilution factor in test [10] of 2.8. Also, the “Potency IU/mg” value in test [10] was 1.21 IU/mg. Also, the “SDA concentration providing full protection” value in test [10] came out at 500 nM. In [12], the affinity, expressed as Kd, was 0.0158 nM. The same molecule displayed an off-rate constant (koff) in test [12] of 6.77e-06 s⁻¹. The molecule further had a kon in test [12] of 429000 M⁻¹ s⁻¹.

The term Kd denotes the concentration at which binding is half-saturated. Lower therefore signals tighter binding. The koff is the first-order rate constant of dissociation. Read a low koff as slow dissociation. What is called kon is the rate constant with which the complex forms. Read a low kon as slower complex formation.
